We go through seven molecules from US20260242478A1 (published 2026).

Where two headings read alike, the source gives them in different places. Where no end group is shown, it is not given here.

Assay [1] concerns the target T1, Anti-CD28 Fab (SEQ ID NOs: 696, 697).
T1 construct: Biotinylated and captured on neutravidin coated plates in the panning ELISA
The assay is described as follows: phage binding ELISA; anti-CD28 Fab on plate pre-incubated with CD28 antigen as competitor, anti-M13 HRP detection.

The target is the same in assay [2]. Put plainly: phage binding ELISA; biotinylated anti-CD28 Fab on neutravidin plate, clonal phage supernatant, anti-M13 HRP detection.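 Also: wells pretreated with blocking buffer, either plus or minus CD28 antigen, then given crude phage supernatant briefly without washing in between, then washed before anti-M13 HRP readout.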
A further assay concerns the target T2, Peptide-219 (cysteine pairing not given here; also: biotinylated, site not given here).
T2 peptide: HVKLCKPAWMCQGL
Put plainly: BLI, biotinylated peptide on sensor.

A further assay concerns the target T3, Peptide-225 (cysteine pairing not given here; also: biotinylated, site not given here).
T3 peptide: IPKSCIPSWMCTGF
Put plainly: BLI, biotinylated peptide on sensor.

The next assay concerns the target T4, Peptide-227 (cysteine pairing not given here; also: biotinylated, site not given here).
T4 peptide: LDNWCKPSWMCTGF
The assay is described as follows: BLI, biotinylated peptide on sensor.

The target in another assay is T5, Peptide-230 (cysteine pairing not given here; also: biotinylated, site not given here).
T5 peptide: VTKWCIPPWMCEVT
The assay is described as follows: BLI, biotinylated peptide on sensor.

Another assay concerns the target T6, Peptide-232 (cysteine pairing not given here; also: biotinylated, site not given here).
T6 peptide: LDKWCVPKWMCSGL
The assay is described as follows: BLI, biotinylated peptide on sensor.

Another assay has as its target T7, Peptide-233 (cysteine pairing not given here; also: biotinylated, site not given here).
T7 peptide: GEKWCIPDWMCSGF
The assay is described as follows: BLI, biotinylated peptide on sensor.

The next assay concerns the target T8, Peptide-235 (cysteine pairing not given here; also: biotinylated, site not given here).
T8 peptide: VEKLCTPIWMCLGF
The assay is described as follows: BLI, biotinylated peptide on sensor.

For the next assay, the target named is T9, Peptide-236 (cysteine pairing not given here; also: biotinylated, site not given here).
T9 peptide: DVKLCKPEWMCYGL
Put plainly: BLI, biotinylated peptide on sensor.

The target in the next assay is T10, Peptide-239 (cysteine pairing not given here; also: biotinylated, site not given here).
T10 peptide: IDIRCTPIWMCVGF
Put plainly: BLI, biotinylated peptide on sensor.

A further assay has as its target T11, Peptide-263 (cysteine pairing not given here; also: biotinylated, site not given here).
T11 peptide: AVKACIPEWMCIGF
Put plainly: BLI, biotinylated peptide on sensor.

The next assay has as its target T12, Peptide-267 (cysteine pairing not given here; also: biotinylated, site not given here).
T12 peptide: FTNYCVPSWMCTGF
Put plainly: BLI, biotinylated peptide on sensor.

Another assay addresses T13, Peptide-268 (cysteine pairing not given here; also: biotinylated, site not given here).
T13 peptide: VEKVCKPVWMCVGF
Put plainly: BLI, biotinylated peptide on sensor.

Another assay concerns the target T14, Peptide-270 (cysteine pairing not given here; also: biotinylated, site not given here).
T14 peptide: ESRLCVPAWMCAGF
Put plainly: BLI, biotinylated peptide on sensor.

The target of another assay is T15, Peptide-271 (cysteine pairing not given here; also: biotinylated, site not given here).
T15 peptide: EDILCKPKWMCEGF
Put plainly: BLI, biotinylated peptide on sensor.

The next assay concerns the target T16, Peptide-274 (cysteine pairing not given here; also: biotinylated, site not given here).
T16 peptide: ITPVCKPLWMCSGL
The assay is described as follows: BLI, biotinylated peptide on sensor.

In a further assay the target is T17, Peptide-277 (cysteine pairing not given here; also: biotinylated (site not given here)).
T17 peptide: VVIKCKPEWMCSGF
The assay is described as follows: BLI, biotinylated peptide on sensor.

The next assay addresses T18, Peptide-282 (cysteine pairing not given here; also: biotinylated (site not given here)).
T18 peptide: IVVKCVPSWMCEGF
Put plainly: BLI, biotinylated peptide on sensor.

For a further assay, the target named is T19, Peptide-283 (cysteine pairing not given here; also: biotinylated (site not given here)).
T19 peptide: TVAYCKPAWMCQGF
The assay is described as follows: BLI, biotinylated peptide on sensor.

The target in a further assay is T20, Peptide-284 (cysteine pairing not given here; also: biotinylated (site not given here)).
T20 peptide: TEVRCTPPWMCLGF
The assay is described as follows: BLI, biotinylated peptide on sensor.

For another assay, the target named is T21, Peptide-285 (cysteine pairing not given here; also: biotinylated (site not given here)).
T21 peptide: VERLCTPAWMCHGF
Put plainly: BLI, biotinylated peptide on sensor.

A further assay has as its target T22, Peptide-286 (cysteine pairing not given here; also: biotinylated (site not given here)).
T22 peptide: VLKYCIPDWMCAGI
Put plainly: BLI, biotinylated peptide on sensor.

Assay [3] addresses T23, Peptide-179 (cysteine pairing not given here; also: biotinylated (site not given here)).
T23 construct: PSMA peptide mask (P2)
T23 peptide: LMKWCTPRWMCAAE
The assay is described as follows: ELISA, biotinylated peptide captured on neutravidin, PSMA Fab titrated.

Assay [4] has as its target T24, Peptide-180 (cysteine pairing not given here; also: biotinylated (site not given here)).
T24 construct: PSMA peptide mask (P2)
T24 peptide: IAVLCQPNWMCAGF
Described as above.

The target of another assay is T25, Peptide-181 (cysteine pairing not given here; also: biotinylated (site not given here)).
T25 construct: PSMA peptide mask (P2)
T25 peptide: PELRCVPFWMCSFN
The description is as above.

Assay [5] addresses T23, Peptide-179. The assay is described as above.
Assay [6] addresses T23, Peptide-179. Put plainly: BLI (Octet), biotinylated peptide on streptavidin sensor, PSMA Fab titrated, 1:1 model.
Assay [7] addresses T24, Peptide-180. Described as above.
The next assay has as its target T26, Peptide-194 (cysteine pairing not given here; also: biotinylated (site not given here)).
T26 construct: PSMA peptide mask (P2)
T26 peptide: SKLLCVPPWMCYHV
The assay is described as above.

Another assay addresses T27, Peptide-202 (cysteine pairing not given here; also: biotinylated (site not given here)).
T27 construct: PSMA peptide mask (P2)
T27 peptide: MCQWDELNYWMDCD
Described as above.

The target in a further assay is T28, Peptide-204 (cysteine pairing not given here; also: biotinylated (site not given here)).
T28 construct: PSMA peptide mask (P2)
T28 peptide: QCTWNEKTWWMECE
The description is as above.

Another assay has as its target T29, Peptide-205 (cysteine pairing not given here; also: biotinylated (site not given here)).
T29 construct: PSMA peptide mask (P2)
T29 peptide: MCQWDKINYWMDCD
The description is as above.

Assay [8] addresses Ab-15. The assay is described as follows: BLI (Octet): biotinylated peptide on sensor, Ab-15 titrated, 1:1 model.
In assay [9] the target is Ab-15. Put plainly: binding ELISA: biotinylated peptide on neutravidin plate, Ab-15 titrated.
For assay [10], the target named is Ab-15. Described as above. The source holds these as a separate data set.
The target of assay [11] is Ab-15. The assay is described as follows: BLI (Octet): sensor loaded with 20 nM biotinylated peptide, 100 nM Ab-15.
The target of assay [12] is Ab-15. Put plainly: BLI (Octet): sensor loaded with 200 nM biotinylated peptide, 100 nM Ab-15.
Assay [13] addresses Ab-15. The description is as above. The source holds these as a separate data set.
For assay [14], the target named is Ab-15. Put plainly: competition ELISA: peptide titrated against 1 nM Ab-15; competitor plate-bound CD28.
The target of assay [15] is Ab-15. Described as above. This is another data set of the same source.
The target in assay [16] is Ab-15. Put plainly: BLI (Octet): biotinylated peptide on sensor, Ab-15 titrated, 1:1 model. The source holds these as a separate data set.

B1: Phage-1704 (clonal phage displaying a Peptide-92 library peptide, SEQ ID NO: 2000) (peptide)
peptide: SCAAGAGYGWPQCL
modifications: cysteine pairing not given here; also: displayed as fusion to phage pIII, linker and order of fusion not given here
notes: not shown: pIII filament protein of the bacteriophage to which the peptide is fused
Regarding B1, the “Anti-CD28 Fab signal in the presence of CD28 (phage binding ELISA)” value (“Anti-CD28 Fab signal in the presence” for short) in assay [1] came to 0.13. Further, the “Anti-CD28 Fab signal (phage binding ELISA)” value in assay [2] amounted to 0.55.

B2: PSMA Fab (SEQ ID NOs: 19, 20) (Fab, V domains shown)
VH: QVQLVESGGGVVQPGRSLRLSCAASGFAFSRYGMHWVRQAPGKGLEWVAVIWYDGSNKYYADSVKGRFTISRDNSKNTQYLQMNSLRAEDTAVYYCARGGDFLYYYYYGMDVWGQGTTVTVSS
VL: DIQMTQSPSSLSASVGDRVTITCRASQGISNYLAWYQQKTGKVPKFLIYEASTLQSGVPSRFSGGGSGTDFTLTISSLQPEDVATYYCQNYNSAPFTFGPGTKVDIKR
notes: also called 006 PSMA Fab; anti-PSMA Fab
Take B2: the binding result with Peptide-219, with Peptide-225, with Peptide-227, with Peptide-230, in the assay with Peptide-232 and with Peptide-233 was “binds” in each case. In addition, the binding result with Peptide-235, with Peptide-236, with Peptide-239, with Peptide-263, with Peptide-267 and with Peptide-268 was “binds” each time. Moreover, the binding result with Peptide-270, with Peptide-271, in the assay with Peptide-274, with Peptide-277, in the assay with Peptide-282 and in the assay with Peptide-283 was “binds” each time. Further, the binding result in the assay with Peptide-284, with Peptide-285 and with Peptide-286 was “binds” throughout.

B3: PSMA Fab (SEQ ID NOs: 19, 20) (Fab, V domains shown)
VH: QVQLVESGGGVVQPGRSLRLSCAASGFAFSRYGMHWVRQAPGKGLEWVAVIWYDGSNKYYADSVKGRFTISRDNSKNTQYLQMNSLRAEDTAVYYCARGGDFLYYYYYGMDVWGQGTTVTVSS
VL: DIQMTQSPSSLSASVGDRVTITCRASQGISNYLAWYQQKTGKVPKFLIYEASTLQSGVPSRFSGGGSGTDFTLTISSLQPEDVATYYCQNYNSAPFTFGPGTKVDIKR
notes: as for B2
Consider B3, for which the EC50 with Peptide-179 [3] worked out at 5.9 nM; with Peptide-180 [4], 33 nM; with Peptide-181, 3 nM; with Peptide-179 [5], 120 nM. The “Off rate t1/2” value in the assay with Peptide-179 [6] was 1.09 min; in the assay with Peptide-180 [7], 0.75 min; in the assay with Peptide-194 it was less than 1 min; in the assay with Peptide-202 it was less than 1 min; with Peptide-204, less than 1 min; in the assay with Peptide-205, less than 1 min.

B4: Phage-1705 (clonal phage displaying a Peptide-92 library peptide, SEQ ID NO: 2001) (peptide)
peptide: SCGGGFHYSWPLCF
modifications: cysteine pairing not given here; also: displayed as fusion to phage pIII, linker and order of fusion not given here
notes: as for B1
Consider B4, for which the “Anti-CD28 Fab signal in the presence” value in assay [1] worked out at 0.15. Also, the “Anti-CD28 Fab signal (phage binding ELISA)” value in assay [2] turned out to be 0.55.

B5: Phage-1706 (clonal phage displaying a Peptide-92 library peptide, SEQ ID NO: 2002) (peptide)
peptide: GCAAGFHYTLSTCL
modifications: cysteine pairing not given here; also: displayed as fusion to phage pIII, linker and order of fusion not given here
notes: as for B1
As for B5, in assay [1], the “Anti-CD28 Fab signal in the presence” value was found to be 0.05. For the same molecule, the “Anti-CD28 Fab signal (phage binding ELISA)” value in assay [2] came to 0.42.
In the case of MDWCPRDLWVHCFA (cysteine pairing not given here; also: biotinylated, site not given here, CD28 peptide mask) [Peptide-41], the Kd with Ab-15 [8] was 15.1 nM. In addition, the t1/2 with Ab-15 [8] came out at 15.5 min; with Ab-15 [12], 9.8 min. In addition, the concentration giving a half-maximal response (EC50) with Ab-15 [9] is 4 nM; with Ab-15 [10], 1 nM. In addition, the “Octet signal (20 nM peptide)” value in the assay with Ab-15 [11] stood at 0.509. For the same molecule, the Octet signal with Ab-15 [12] is 2.03. In the assay with Ab-15 [13], the “Octet signal (200 nM peptide)” value amounted to 1.8. Moreover, the IC50 with Ab-15 [14] was found to be 60 nM; in the assay with Ab-15 [15], 200 nM.
In the assay with Ab-15 [16], IDWCPRYLWDECYN (cysteine pairing not given here; also: biotinylated, site not given here, CD28 peptide mask) [Peptide-71] yielded a Kd of 16 nM and a t1/2 of 9.1 min. The EC50 in the assay with Ab-15 [10] was determined as 2.1 nM. Further, the “Octet signal (200 nM peptide)” value with Ab-15 [13] worked out at 1.52. In the assay with Ab-15 [15], the IC50 was 140 nM.
